Test results published in the supplement of paper PMC10065799, “High-throughput profiling of sequence recognition by tyrosine kinases and SH2 domains using bacterial peptide display” (eLife, 2023).

Target: Jak2 (UniProt O60674)
Assay: phosphorylation enrichment, bacterial display (enrichment ratio); higher = better substrate or ligand; peptides without Tyr show the background
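Also: 11-residue human phosphosite peptides and single-mutation variants displayed on the E. coli surface, counted by deep sequencing, each peptide's frequency after selection divided by its frequency in the unselected input library; frequency after pTyr selection over input frequency; kinase dosed for 20-30% of maximal phosphorylation in three min.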

Sequence of Jak2 (O60674 whole entry, looked up): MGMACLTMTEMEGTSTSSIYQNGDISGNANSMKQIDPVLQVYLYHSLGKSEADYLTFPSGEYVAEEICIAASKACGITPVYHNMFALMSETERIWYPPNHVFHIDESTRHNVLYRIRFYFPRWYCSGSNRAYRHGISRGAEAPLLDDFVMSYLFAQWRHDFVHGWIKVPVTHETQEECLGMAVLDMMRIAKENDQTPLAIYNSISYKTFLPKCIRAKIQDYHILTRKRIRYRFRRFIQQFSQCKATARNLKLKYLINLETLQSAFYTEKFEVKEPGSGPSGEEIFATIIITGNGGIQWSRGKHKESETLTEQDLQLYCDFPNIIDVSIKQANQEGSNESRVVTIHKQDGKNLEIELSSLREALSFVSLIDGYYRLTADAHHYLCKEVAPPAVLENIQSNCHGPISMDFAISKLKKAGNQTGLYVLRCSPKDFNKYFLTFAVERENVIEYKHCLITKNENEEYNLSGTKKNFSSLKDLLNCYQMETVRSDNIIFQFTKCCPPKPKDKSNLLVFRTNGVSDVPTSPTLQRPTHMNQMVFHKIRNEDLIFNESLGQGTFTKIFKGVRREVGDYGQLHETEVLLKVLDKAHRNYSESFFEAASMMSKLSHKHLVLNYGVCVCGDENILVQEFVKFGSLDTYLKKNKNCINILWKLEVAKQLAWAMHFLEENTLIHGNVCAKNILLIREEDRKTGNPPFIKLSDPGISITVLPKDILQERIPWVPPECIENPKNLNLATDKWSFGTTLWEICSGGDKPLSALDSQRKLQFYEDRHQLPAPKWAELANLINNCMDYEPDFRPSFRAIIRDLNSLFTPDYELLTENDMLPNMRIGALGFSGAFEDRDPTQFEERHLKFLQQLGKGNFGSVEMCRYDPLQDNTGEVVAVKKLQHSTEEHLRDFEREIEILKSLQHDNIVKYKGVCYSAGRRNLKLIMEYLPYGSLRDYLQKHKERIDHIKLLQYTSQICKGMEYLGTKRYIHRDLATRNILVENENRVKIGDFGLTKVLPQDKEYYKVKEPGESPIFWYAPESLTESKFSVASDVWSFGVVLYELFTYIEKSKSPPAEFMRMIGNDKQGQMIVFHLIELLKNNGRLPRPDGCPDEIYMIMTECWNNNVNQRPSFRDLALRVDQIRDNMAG

Row | Sequence | phosphorylation enrichment
1 | ILLAGYLVMVI [SLC28A3_Y113] | 1.06
2 | KLNNEYLELNY [MME_Y497] | 0.861
3 | FGSGNYNVFGN [HNRNPA2B1_Y300_D302V_YF] | 0.449
4 | ADLLDYIKALN [HPRT1_Y81] | 0.928
5 | EPSVPYRGMVF [GLI3_Y104_T107M] | 0.639
6 | FALAEYTEVKT [ALDH1A3_Y497_YF] | 0.765
7 | ERIEFYELNKK [PMM2_Y145_D148N] | 0.731
8 | VNLVLHLSIAK [FBXO15_Y496_Y496H] | 1.36
9 | SGDVQYRSSVR [FREM2_Y2158_T2153S] | 0.396
10 | LDFNEYVRDLN [HPRT1_Y198_F199V_YF] | 1.31
11 | DNLSNYVFQGQ [GRIN2A_Y978_N976S] | 0.783
12 | AEFGLYRAMVR [VSX2_Y222_G223R_YF] | 0.726
13 | HGVSSYDTIIS [LDLR_Y465_V468I] | 1.08
14 | RNGNRYFKGIV [DCX_Y64_D62N] | 1.02
15 | LPPREYVVVPS [CAPN1_Y494_G492R] | 1.04
16 | RLLCEYQELMN [KRT75_Y434_R432C] | 1.33
17 | SDVNKYSTAFG [GJB3_Y16_G12D] | 0.451

Row | Sequence | phosphorylation enrichment
18 | LEISPYMLSGR [LRRK2_Y1718] | 0.64
19 | SSYDIYHLSRE [KIR3DL2_Y253] | 0.724
20 | CTTIHYMYMCN [TP53_Y234_N235M] | 0.973
21 | LTYHMYADPNI [SOS1_Y618_F623I] | 2.03
22 | RLGNQYVNVMN [SLC3A1_Y461] | 0.64
23 | PFRKLYESVKK [MKI67_Y241_W238R] | 1.16
24 | ISSLCYELLEE [TRPC6_Y896_R895C] | 1.36
25 | ALERPYTSKHS [NANS_Y71] | 0.564
26 | SNPAYYVLEGV [INPPL1_Y987_N982S] | 4
27 | RILDVYIFLGP [GAA_Y340_G335R] | 0.858
28 | WHHIFYNELRV [ACTG1_Y91_T89I] | 1.13
29 | DNKALYDICFR [TUBB3_Y208_E205K] | 1.18
30 | DPADRYLTEQY [CDKL5_Y286_C291Y] | 0.965
31 | GCKNHYDKDKP [THAP1_Y14_R13H] | 0.616
32 | EKDSNYCLCRT [ASIC2_Y357] | 0.763
33 | PATYTYDEYKK [COL8A2_Y648] | 0.868

Target: Fes (UniProt P07332)
Assay: as above

Sequence of Fes (P07332 whole entry, looked up): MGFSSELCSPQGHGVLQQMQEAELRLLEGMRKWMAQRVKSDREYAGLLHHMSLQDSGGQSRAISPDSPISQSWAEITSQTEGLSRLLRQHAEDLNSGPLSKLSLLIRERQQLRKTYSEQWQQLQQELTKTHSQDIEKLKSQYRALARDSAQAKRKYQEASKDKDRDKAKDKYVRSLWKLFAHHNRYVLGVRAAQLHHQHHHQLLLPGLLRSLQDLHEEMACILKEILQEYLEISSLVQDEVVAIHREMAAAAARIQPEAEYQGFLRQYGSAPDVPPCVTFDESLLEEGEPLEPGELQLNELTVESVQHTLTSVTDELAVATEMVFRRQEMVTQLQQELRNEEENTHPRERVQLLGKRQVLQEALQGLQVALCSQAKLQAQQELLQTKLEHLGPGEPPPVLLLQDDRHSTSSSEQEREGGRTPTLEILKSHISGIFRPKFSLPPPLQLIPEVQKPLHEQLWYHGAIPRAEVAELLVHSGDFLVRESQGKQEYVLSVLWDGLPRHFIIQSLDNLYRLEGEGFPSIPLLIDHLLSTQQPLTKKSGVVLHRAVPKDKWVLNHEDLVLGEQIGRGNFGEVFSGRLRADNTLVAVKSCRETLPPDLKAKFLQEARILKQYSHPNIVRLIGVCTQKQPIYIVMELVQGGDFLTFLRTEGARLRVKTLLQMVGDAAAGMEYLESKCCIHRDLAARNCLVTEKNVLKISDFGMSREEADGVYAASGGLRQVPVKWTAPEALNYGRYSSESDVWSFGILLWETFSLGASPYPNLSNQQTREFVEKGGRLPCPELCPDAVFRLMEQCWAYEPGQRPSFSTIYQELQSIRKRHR

Row | Sequence | phosphorylation enrichment
34 | ILLAGYLVMVI [SLC28A3_Y113] | 1.38
35 | KLNNEYLELNY [MME_Y497] | 0.892
36 | FGSGNYNVFGN [HNRNPA2B1_Y300_D302V_YF] | 0.508
37 | ADLLDYIKALN [HPRT1_Y81] | 1.2
38 | EPSVPYRGMVF [GLI3_Y104_T107M] | 0.816
39 | FALAEYTEVKT [ALDH1A3_Y497_YF] | 1.11
40 | ERIEFYELNKK [PMM2_Y145_D148N] | 0.844
41 | VNLVLHLSIAK [FBXO15_Y496_Y496H] | 1.36
42 | SGDVQYRSSVR [FREM2_Y2158_T2153S] | 0.608
43 | LDFNEYVRDLN [HPRT1_Y198_F199V_YF] | 1.47
44 | DNLSNYVFQGQ [GRIN2A_Y978_N976S] | 0.796
45 | AEFGLYRAMVR [VSX2_Y222_G223R_YF] | 0.779
46 | HGVSSYDTIIS [LDLR_Y465_V468I] | 1.08
47 | RNGNRYFKGIV [DCX_Y64_D62N] | 0.607
48 | LPPREYVVVPS [CAPN1_Y494_G492R] | 2.17
49 | RLLCEYQELMN [KRT75_Y434_R432C] | 1.78
50 | SDVNKYSTAFG [GJB3_Y16_G12D] | 0.67

Row | Sequence | phosphorylation enrichment
51 | LEISPYMLSGR [LRRK2_Y1718] | 1.28
52 | SSYDIYHLSRE [KIR3DL2_Y253] | 0.851
53 | CTTIHYMYMCN [TP53_Y234_N235M] | 1.14
54 | LTYHMYADPNI [SOS1_Y618_F623I] | 1.59
55 | RLGNQYVNVMN [SLC3A1_Y461] | 0.727
56 | PFRKLYESVKK [MKI67_Y241_W238R] | 0.695
57 | ISSLCYELLEE [TRPC6_Y896_R895C] | 1.66
58 | ALERPYTSKHS [NANS_Y71] | 0.535
59 | SNPAYYVLEGV [INPPL1_Y987_N982S] | 0.921
60 | RILDVYIFLGP [GAA_Y340_G335R] | 1.05
61 | WHHIFYNELRV [ACTG1_Y91_T89I] | 1.33
62 | DNKALYDICFR [TUBB3_Y208_E205K] | 1.26
63 | DPADRYLTEQY [CDKL5_Y286_C291Y] | 1.15
64 | GCKNHYDKDKP [THAP1_Y14_R13H] | 1.02
65 | EKDSNYCLCRT [ASIC2_Y357] | 0.883
66 | PATYTYDEYKK [COL8A2_Y648] | 1.3

System: c-Abl (mouse)
Assay: as above

Row | Sequence | phosphorylation enrichment
67 | ILLAGYLVMVI [SLC28A3_Y113] | 0.748
68 | KLNNEYLELNY [MME_Y497] | 0.635
69 | FGSGNYNVFGN [HNRNPA2B1_Y300_D302V_YF] | 0.328
70 | ADLLDYIKALN [HPRT1_Y81] | 0.754
71 | EPSVPYRGMVF [GLI3_Y104_T107M] | 0.471
72 | FALAEYTEVKT [ALDH1A3_Y497_YF] | 0.757
73 | ERIEFYELNKK [PMM2_Y145_D148N] | 0.486
74 | VNLVLHLSIAK [FBXO15_Y496_Y496H] | 0.88
75 | SGDVQYRSSVR [FREM2_Y2158_T2153S] | 0.481
76 | LDFNEYVRDLN [HPRT1_Y198_F199V_YF] | 0.911
77 | DNLSNYVFQGQ [GRIN2A_Y978_N976S] | 0.546
78 | AEFGLYRAMVR [VSX2_Y222_G223R_YF] | 1.48
79 | HGVSSYDTIIS [LDLR_Y465_V468I] | 1.63
80 | RNGNRYFKGIV [DCX_Y64_D62N] | 0.799
81 | LPPREYVVVPS [CAPN1_Y494_G492R] | 0.726
82 | RLLCEYQELMN [KRT75_Y434_R432C] | 0.804
83 | SDVNKYSTAFG [GJB3_Y16_G12D] | 0.509

Row | Sequence | phosphorylation enrichment
84 | LEISPYMLSGR [LRRK2_Y1718] | 0.491
85 | SSYDIYHLSRE [KIR3DL2_Y253] | 1.18
86 | CTTIHYMYMCN [TP53_Y234_N235M] | 0.681
87 | LTYHMYADPNI [SOS1_Y618_F623I] | 3.47
88 | RLGNQYVNVMN [SLC3A1_Y461] | 0.524
89 | PFRKLYESVKK [MKI67_Y241_W238R] | 1
90 | ISSLCYELLEE [TRPC6_Y896_R895C] | 1.13
91 | ALERPYTSKHS [NANS_Y71] | 0.615
92 | SNPAYYVLEGV [INPPL1_Y987_N982S] | 0.538
93 | RILDVYIFLGP [GAA_Y340_G335R] | 0.543
94 | WHHIFYNELRV [ACTG1_Y91_T89I] | 0.805
95 | DNKALYDICFR [TUBB3_Y208_E205K] | 1.41
96 | DPADRYLTEQY [CDKL5_Y286_C291Y] | 0.806
97 | GCKNHYDKDKP [THAP1_Y14_R13H] | 0.736
98 | EKDSNYCLCRT [ASIC2_Y357] | 0.573
99 | PATYTYDEYKK [COL8A2_Y648] | 1.38

Target: FGFR3 (UniProt P22607)
Assay: as above

Sequence of FGFR3 (P22607 whole entry, looked up): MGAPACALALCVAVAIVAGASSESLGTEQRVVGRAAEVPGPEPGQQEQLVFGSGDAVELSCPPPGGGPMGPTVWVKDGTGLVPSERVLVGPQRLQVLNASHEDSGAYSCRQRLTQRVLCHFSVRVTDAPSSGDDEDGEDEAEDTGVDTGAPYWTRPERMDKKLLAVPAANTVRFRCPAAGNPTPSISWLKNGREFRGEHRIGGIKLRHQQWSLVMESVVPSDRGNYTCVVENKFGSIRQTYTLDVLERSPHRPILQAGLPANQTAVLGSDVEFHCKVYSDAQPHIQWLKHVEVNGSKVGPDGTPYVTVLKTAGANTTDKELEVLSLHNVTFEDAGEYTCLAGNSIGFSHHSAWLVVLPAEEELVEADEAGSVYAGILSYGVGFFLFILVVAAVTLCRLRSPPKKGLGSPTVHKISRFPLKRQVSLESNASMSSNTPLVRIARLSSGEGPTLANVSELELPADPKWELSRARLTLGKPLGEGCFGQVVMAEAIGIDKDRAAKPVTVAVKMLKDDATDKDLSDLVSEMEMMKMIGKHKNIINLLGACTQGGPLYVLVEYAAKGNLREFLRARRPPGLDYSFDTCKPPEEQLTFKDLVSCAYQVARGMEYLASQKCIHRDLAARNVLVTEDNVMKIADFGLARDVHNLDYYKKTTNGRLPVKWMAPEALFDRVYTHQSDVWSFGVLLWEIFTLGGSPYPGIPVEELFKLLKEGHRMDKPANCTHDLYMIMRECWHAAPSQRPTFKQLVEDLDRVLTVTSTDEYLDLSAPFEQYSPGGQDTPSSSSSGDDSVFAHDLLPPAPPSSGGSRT

Row | Sequence | phosphorylation enrichment
100 | ILLAGYLVMVI [SLC28A3_Y113] | 0.783
101 | KLNNEYLELNY [MME_Y497] | 3.27
102 | FGSGNYNVFGN [HNRNPA2B1_Y300_D302V_YF] | 0.434
103 | ADLLDYIKALN [HPRT1_Y81] | 0.695
104 | EPSVPYRGMVF [GLI3_Y104_T107M] | 0.508
105 | FALAEYTEVKT [ALDH1A3_Y497_YF] | 0.903
106 | ERIEFYELNKK [PMM2_Y145_D148N] | 0.541
107 | VNLVLHLSIAK [FBXO15_Y496_Y496H] | 0.85
108 | SGDVQYRSSVR [FREM2_Y2158_T2153S] | 0.432
109 | LDFNEYVRDLN [HPRT1_Y198_F199V_YF] | 0.628
110 | DNLSNYVFQGQ [GRIN2A_Y978_N976S] | 0.611
111 | AEFGLYRAMVR [VSX2_Y222_G223R_YF] | 0.673
112 | HGVSSYDTIIS [LDLR_Y465_V468I] | 0.785
113 | RNGNRYFKGIV [DCX_Y64_D62N] | 0.513
114 | LPPREYVVVPS [CAPN1_Y494_G492R] | 2.46
115 | RLLCEYQELMN [KRT75_Y434_R432C] | 1.6
116 | SDVNKYSTAFG [GJB3_Y16_G12D] | 0.459

Row | Sequence | phosphorylation enrichment
117 | LEISPYMLSGR [LRRK2_Y1718] | 0.652
118 | SSYDIYHLSRE [KIR3DL2_Y253] | 2.01
119 | CTTIHYMYMCN [TP53_Y234_N235M] | 0.772
120 | LTYHMYADPNI [SOS1_Y618_F623I] | 3.13
121 | RLGNQYVNVMN [SLC3A1_Y461] | 0.991
122 | PFRKLYESVKK [MKI67_Y241_W238R] | 0.685
123 | ISSLCYELLEE [TRPC6_Y896_R895C] | 1.23
124 | ALERPYTSKHS [NANS_Y71] | 0.398
125 | SNPAYYVLEGV [INPPL1_Y987_N982S] | 12.1
126 | RILDVYIFLGP [GAA_Y340_G335R] | 0.672
127 | WHHIFYNELRV [ACTG1_Y91_T89I] | 0.911
128 | DNKALYDICFR [TUBB3_Y208_E205K] | 0.853
129 | DPADRYLTEQY [CDKL5_Y286_C291Y] | 0.597
130 | GCKNHYDKDKP [THAP1_Y14_R13H] | 0.562
131 | EKDSNYCLCRT [ASIC2_Y357] | 0.605
132 | PATYTYDEYKK [COL8A2_Y648] | 0.728
